Source: paper PMC11379722

Key:
[1] = biological target: S protein of the SARS-CoV-2 Omicron (B.1.1.529) strain, his-tagged (SARS-CoV-2, Omicron (B.1.1.529) strain) (UniProt P0DTC2); assay: BLI
[2] = biological target: RBD of the SARS-CoV-2 Delta (B.1.617.2) strain (SARS-CoV-2, Delta (B.1.617.2) strain) (UniProt P0DTC2); assay: ELISA

“CR3022 SH100D+SH103Y+IL34W triple mutant (IgG1 format) (antibody)” gave a fold increase in binding affinity (BLI) against wild-type CR3022 [1] of 6.1 fold.
Work on “CR3022 SH100D+SH103Y+SL33R triple mutant (IgG1 format) (antibody)” yielded an EC50 [2] of 0.06 nM, a fold lower ELISA EC50 than wild-type CR3022 [2] of 3.4 fold and a fold increase in binding affinity (BLI) against wild-type CR3022 [1] of 4.1 fold.
